From patent publication US20150368659

Experiments:
[1] = tested on: GBSS_T1 TALE-nuclease right monomer (synthetic construct (Xanthomonas TALE)?); assay: cell_activity; conditions: pair with left monomer; S. tuberosum protoplasts; 23% with TREX2 co-delivered; full target SEQ 5
[2] = tested on: GBSS_T1 TALE-nuclease left monomer (synthetic construct (Xanthomonas TALE)?); assay: cell_activity; conditions: pair with right monomer; S. tuberosum protoplasts; 23% with TREX2 co-delivered; full target SEQ 5

Sequence	activity (% NHEJ mutagenesis) [1]	activity (% NHEJ mutagenesis) [2]
AGCTTGATGGGCTCCAA (double strand) [GBSS_T1 right half-site]	11	–
TCTGACTCACAATGGTT (double strand) [GBSS_T1 left half-site]	–	11
